Source: patent US20210147513A1 (published 2021)
Residue numbers refer to the chain shown, from its start.

B1: 3A1 scFvFc (scFv, V domains shown)
VH: QVQLVQSGAEVKKPGSSVKVSCKASGGTFSSYAVSWVRQAPGQGLEWVGRIIPIFGKANYAQKFQGRVTITADKSTSTAYMELSSLRPEDTAVYYCARDQGISANFKDAFDIWGQGTTVTVSS
VL: ETTLTQSPATLSVSPGERATLSCRASESVGSNLAWYQQKPGQAPSLLIYGASTRATGIPDRFSGSGSGTDFTLTISSLQSEDFAAYYCQQYNNWPLTFGPGTKVEIK
B2: 3A1 IgG1 (antibody, V domains shown)
VH: B1 VH
VL: B1 VL
B3: 1F8 IgG1 (antibody, V domains shown)
VH: EVQLVQSGAEVKEPGSSVKVSCKASGGTFGSYAINWVRQAPGQRLEWMGWIDAANGNTKYSQKFQGRVTITGDTSASTAYMELSSLRSEDTAVYYCARDRWMTTRAFDIWGQGTMVTVSS
VL: QPVLTQPPSASGTPGQRVTISCSGSSSNIGSNYVFWYQQLPGMAPKLLISRNNQRPSGVPDRFSGSKSGTSASLAISGPQSEDEADYYCAAWDDSLRGPVFGGGTRVTVL
B4: 3B12 scFvFc (scFv, V domains shown)
VH: QVQLVQSGAEVKKPGSSVKVSCKASGGTFSSYAISWVRQAPGQGLEWMGGIIPIFGTANYAQKFQGRVTITADKSTSTAYMELSSLRSEDTAVYYCARASYCSTTSCASGAFDIWGQGTLVTVSS
VL: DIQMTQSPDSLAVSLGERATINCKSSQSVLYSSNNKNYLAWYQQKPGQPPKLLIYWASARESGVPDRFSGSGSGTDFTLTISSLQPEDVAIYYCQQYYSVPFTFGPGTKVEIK
B5: 3B11 IgG1 (antibody, V domains shown)
VH: B4 VH with A99V, S100G, T104S, A108H, S109I, L120T
VL: ETTLTQSPGTLSLSPGERATLSCRASQSVSSSIAWYQQKPGQAPRLLMFDSSTRATGIPDRFSGSGSGTDFTLNISSLEPEDFAVYYCQQYSSSPYTFGQGTKLEIK

Assays:
[1] = molecular target: S protein of live MERS-CoV EMC/2012 (MERS-CoV); experiment: cell-based or functional assay
[2] = molecular target: T1, S protein of live MERS-CoV EMC/2012 (MERS-CoV); experiment: cell-based or functional assay
T1 chain: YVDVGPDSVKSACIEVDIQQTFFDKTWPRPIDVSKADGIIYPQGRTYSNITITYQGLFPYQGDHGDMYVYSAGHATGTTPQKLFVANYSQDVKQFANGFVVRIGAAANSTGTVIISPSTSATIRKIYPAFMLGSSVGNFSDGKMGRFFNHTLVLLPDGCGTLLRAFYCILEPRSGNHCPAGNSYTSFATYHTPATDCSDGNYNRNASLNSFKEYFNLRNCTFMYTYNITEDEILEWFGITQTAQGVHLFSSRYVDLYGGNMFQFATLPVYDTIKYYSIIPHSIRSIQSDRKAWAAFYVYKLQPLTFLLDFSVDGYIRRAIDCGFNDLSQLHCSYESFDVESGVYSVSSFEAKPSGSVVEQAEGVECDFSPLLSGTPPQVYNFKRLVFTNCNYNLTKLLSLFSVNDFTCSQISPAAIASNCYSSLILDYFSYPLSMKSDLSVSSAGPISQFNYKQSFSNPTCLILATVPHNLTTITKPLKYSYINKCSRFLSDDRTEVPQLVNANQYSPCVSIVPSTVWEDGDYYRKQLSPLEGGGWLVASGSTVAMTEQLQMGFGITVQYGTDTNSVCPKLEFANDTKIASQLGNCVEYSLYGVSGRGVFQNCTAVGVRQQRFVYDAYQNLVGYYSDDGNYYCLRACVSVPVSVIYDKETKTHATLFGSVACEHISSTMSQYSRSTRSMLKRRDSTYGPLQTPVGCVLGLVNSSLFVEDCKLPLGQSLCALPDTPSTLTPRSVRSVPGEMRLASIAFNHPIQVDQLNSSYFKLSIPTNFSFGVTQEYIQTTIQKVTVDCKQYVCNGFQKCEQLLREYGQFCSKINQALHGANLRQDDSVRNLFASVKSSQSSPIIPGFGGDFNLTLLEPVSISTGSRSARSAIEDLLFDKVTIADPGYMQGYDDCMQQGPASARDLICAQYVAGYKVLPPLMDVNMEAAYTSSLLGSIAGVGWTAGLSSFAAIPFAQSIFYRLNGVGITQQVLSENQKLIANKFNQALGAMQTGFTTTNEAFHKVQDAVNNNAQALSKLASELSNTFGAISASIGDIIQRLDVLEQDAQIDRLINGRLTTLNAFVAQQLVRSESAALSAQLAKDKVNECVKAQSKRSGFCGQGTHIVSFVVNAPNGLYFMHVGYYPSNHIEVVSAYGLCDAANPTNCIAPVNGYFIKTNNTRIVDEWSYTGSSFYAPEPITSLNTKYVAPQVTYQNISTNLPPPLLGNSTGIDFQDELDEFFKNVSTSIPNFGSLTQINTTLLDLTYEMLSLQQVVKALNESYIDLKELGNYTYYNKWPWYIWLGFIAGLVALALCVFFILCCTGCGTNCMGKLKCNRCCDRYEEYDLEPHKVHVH

Binder | IC50 (µg/ml), PRNT50 live virus, wt. [1] [µg/mL] | IC50 (µg/ml), PRNT50 live virus, wt. [2] [µg/mL]
B1 | 1.46 | 
B2 | 4.5 | 
B3 | 4.05 | 
B4 |  | 1.25
B5 | 3.5 | 
